According to US20160168266A1 (SBI BIOTECH, published 2016):

T1: human phospholipase D4 (PLD4) protein (human, UniProt Q96BZ4 1-506)
T1 sequence: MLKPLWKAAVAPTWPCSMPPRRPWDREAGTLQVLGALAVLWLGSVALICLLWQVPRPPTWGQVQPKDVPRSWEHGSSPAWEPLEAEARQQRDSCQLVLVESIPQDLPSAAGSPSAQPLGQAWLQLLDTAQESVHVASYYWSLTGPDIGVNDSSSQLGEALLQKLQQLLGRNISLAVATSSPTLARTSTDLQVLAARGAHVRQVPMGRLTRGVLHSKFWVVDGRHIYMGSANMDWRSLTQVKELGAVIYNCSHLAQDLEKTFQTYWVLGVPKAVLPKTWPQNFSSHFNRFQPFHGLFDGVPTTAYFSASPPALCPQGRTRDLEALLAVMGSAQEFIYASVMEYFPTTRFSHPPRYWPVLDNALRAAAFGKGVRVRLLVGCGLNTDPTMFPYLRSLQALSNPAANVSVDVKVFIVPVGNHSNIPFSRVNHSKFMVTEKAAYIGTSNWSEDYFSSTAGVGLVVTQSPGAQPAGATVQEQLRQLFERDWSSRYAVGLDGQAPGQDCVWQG

B1: chimeric 13D4 antibody (antibody, V domains shown)
VH: DVQLQESGPGLVKPSQSLSLTCSVTGYSITSHYYWTWIRQFPGNKLEWMGYISYDGSNNYNPSLKNRISITRDTSKNQFFLKLNSVTTEDTATYNCAREGPLYYGNPYWYFDVWGAGTTVTVSS
VL: DIQMTQTTSSLSASLGDRVTISCRASQDIDNYLNWYQQKPDGTVKLLIYYTSRLHSGVPSRFSGSGSGTDYSLTISNLEQEDVATYFCQQFNTLPRTFGGGTKLEIKR
B2: chimeric 13H11 antibody (antibody, V domains shown)
VH: DVQLQESGPGLVKPSQSLSLTCSVTGYSISSHYYWSWIRQFPGNRLEWMGYISYDGSNNYNPSLKNRISITRDTSKNQFFLKLNSVTTEDTATYNCAREGPLYYGNPYWYFDVWGAGTTVTVSS
VL: DIQMTQTTSSLSASLGGSVTISCRASQDIDNYLNWYQQKPDGTVKLLIYYTSRLHSGVPSRFSGSGSGTDYSLTISNLEQEDIATYFCQQFNTLPRTFGGGTKLEIKR
B3: anti-PLD4 chimeric 11G9.6 antibody (antibody, human IgG1, kappa, V domains shown)
VH: QVQLQQPGAELVKPGTSVKMSCKASGYTFTSYWMHWVKQRPGQGLEWIGDIYPGSDSTNYNEKFKSKATLTVDTSSSTAYMQLSSLTSEDSAVYYCARGGWLDAMDYWGQGTSVTVSS
VL: DIQMTQTTSSLSASLGDRVTISCRASQDISNYLNWYQQKPDGTVKLLIYYTSRLHSGVPSRFSGSGSGTDYSLTISNLEQEDIATYFCQQGNTLPWTFGGGTKLEIKR
B4: chimeric 3B4 antibody (antibody, V domains shown)
VH: EVQLQQSGTVLSRPGASVTMSCKASGDSFTTYWMHWVKQRPGQGLEWIGAIYPGNSETSYNQKFKGKAKLTAVTSASTAYMEFTSLTNEDSAVYYCTGGYSDFDYWGQGTTLTVSS
VL: DILMTQSPSSMSVSLGDTVSITCHASQGIRSNIGWLQQKPGKSFKGLIFHGTNLEDGVPSRFSGRGSGADYSLTINSLESEDFADYYCVQYVQFPPTFGSGTKLEIRR
B5: chimeric 5B7 antibody (antibody, V domains shown)
VH: EVQLQQSGPELVKPGASVKISCKASGYTFTDYNLHWVKQSHGKSLEWIGYIYPYNGNTGYNQKFKRKATLTVDNSSGTVYMELRSLTSEDSAVYYCARGGIYDDYYDYAIDYWGQGTSVTVSS
VL: DIQMTQSPASLSVSVGETVAITCRASENIYSHIAWYQQKEGKSPQRLVYGATNLAHGVPSRFSGSGSGTQYSLKINSLQSEDFGSYYCQHFWGTPWTFGGGTKLEIKR
B6: anti-PLD4 mouse 8C11 antibody (antibody, mouse IgG2b, V domains shown)
VH: QVQLQQSGAELVKPGASVKLSCKASGYTFTSYYLYWVRQRPGQGLEWIGLINPTNSDTIFNEKFKSKATLTVDKSSSTAYMQLSSLTSEDSAVYYCTREGGYGYGPFAYWGQGTLVTVSA
VL: DVVMTQTPLSLPVSLGDQASISCTSSQTLVHSNGNTYLHWYLQKPGQSPKLLIYKVSNRFSGVPDRFSGSGSGTDFTLKISRVEAEDLGVYFCSHSTHVPFTFGSGTKLEIKR
notes: Mouse IgG2b, kappa monoclonal antibody
B7: anti-PLD4 mouse 10C3 antibody (antibody, mouse IgG2a, V domains shown)
VH: EVQLVESGGDLVRPGGSLKLSCAASGFSFSSYGMSWFRQTPDKRLEWVATISSGGSYIYYPESVKGRFTISRDNARNILYLQMSSLKSEDTAMYYCVRLYGGRRGYGLDYWGQGTSVTVSS
VL: EIVMTQAAFSNPVTLGTSASISCRSSKSLLHSDGITYLYWYLQKPGQSPQLLIYQMSNLASGVPDRFSSSGSGTDFTLRISRVEAEDVGVYYCAQNLELYTFGGGTKLEIKR
notes: Mouse IgG2a, kappa monoclonal antibody
B8: anti-PLD4 mouse 11D10 antibody (antibody, mouse IgG2b, V domains shown)
VH: EVQLVESGGDLVRPGGSLKLSCAASGFSFSSYGMSWFRQTPDKRLEWVATISSGGSYIYYPESVKGRFTISRDNARNILYLQMSSLKSEDTAMYYCVRLYGGRRGYGLDYWGQGTSVTVSS
VL: EIVMTQAAFSNPVTLGTSASISCRSSKSLLHSDGITYLYWYLQKPGQSPQLLIYQMSNLASGVPDRFSSSGSGTDFTLRISRVEAEDVGVYYCAQNLELYTFGGGTKLEIKR
notes: Mouse IgG2b, kappa monoclonal antibody with the same CDRs as 10C3

Target: T1, human phospholipase D4 (PLD4) protein
Assay: cell-based or functional assay

| Binder | PLD4+ activated B cells after culture of PBMC with CpG2006 and the chimeric antibody, with control Ig treatment taken as 100% [%] |
| --- | --- |
| B1 | 56 |
| B2 | 55.3 |
| B3 | 66.4 |
| B4 | 70.2 |
| B5 | 25.8 |

Target: T1, human phospholipase D4 (PLD4) protein
Assay: FACS screening of hybridoma culture supernatant (CAL-1 cells)

| Binder | binding result |
| --- | --- |
| B6 | binds |
| B7 | binds |
| B8 | binds |
